According to the supplement of paper PMC7125110:
± gives the standard error. Variants at the floor of the assay were thinned out.

B1: glmS ribozyme (parent)
chain: AUAAAAGCGCCAGAACUACAGAAAUGUAGUUGACGAGGAGGAGGUUUAUCGAAUUUUCGGCGGAUGCCUCCAAA

Tests used:
Conditions in all cases: with glucosamine-6-phosphate
glucosamine-6-phosphate [1] = variants of: B1; assay: self-cleavage kobs at 40 uM GlcN6P; higher = faster cleavage; RNA array
Procedure, shortened: (§1)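 E. coli RNA polymerase transcribed barcoded ribozyme variants in situ on sequenced MiSeq chips, which were tracked via a hybridised Cy3 probe at 37 °C. Tiles were imaged over ~14 h after glucosamine-6-phosphate (40 μM to 10 mM) in HEPES/KCl/Mg(OAc)2 buffer was flowed in. Normalised per-tile medians were fit to one- or two-exponential decays for kobs, and kcat and KM came from weighted Michaelis–Menten fits.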

glucosamine-6-phosphate [2] = variants of: B1; assay: self-cleavage kobs at 160 uM GlcN6P; higher = faster cleavage; RNA array
Procedure, shortened: as §1

glucosamine-6-phosphate [3] = variants of: B1; assay: self-cleavage kobs at 640 uM GlcN6P; higher = faster cleavage; RNA array
Procedure, shortened: as §1

glucosamine-6-phosphate [4] = variants of: B1; assay: self-cleavage kobs at 2500 uM GlcN6P; higher = faster cleavage; RNA array
Procedure, shortened: as §1

glucosamine-6-phosphate [5] = variants of: B1; assay: self-cleavage kobs at 10000 uM GlcN6P; higher = faster cleavage; RNA array
Procedure, shortened: as §1

Variant	self-cleavage kobs at 40 uM GlcN6P (glucosamine-6-phosphate [1])	self-cleavage kobs at 160 uM GlcN6P (glucosamine-6-phosphate [2])	self-cleavage kobs at 640 uM GlcN6P (glucosamine-6-phosphate [3])	self-cleavage kobs at 2500 uM GlcN6P (glucosamine-6-phosphate [4])	self-cleavage kobs at 10000 uM GlcN6P (glucosamine-6-phosphate [5])
U46C A53C U55A U56G G62C	< 1e-05 s⁻¹	–	–	–	–
A36U A42U C68U	< 1e-05 s⁻¹	–	–	–	–
A53U C67U	0.000272 ± 2.9e-05 s⁻¹	0.000713 ± 8.9e-05 s⁻¹	0.00132 ± 0.00019 s⁻¹	0.0104 ± 0.0027 s⁻¹	0.0214 ± 0.0049 s⁻¹
U56C G63U	< 1e-05 s⁻¹	< 1e-05 s⁻¹	–	–	< 1e-05 s⁻¹
A6C A12G U56C	< 1e-05 s⁻¹	–	–	–	< 1e-05 s⁻¹
G7C C8U A39U A53U	< 1e-05 s⁻¹	–	–	–	< 1e-05 s⁻¹
A14U U31G G38C A52U A53U	< 1e-05 s⁻¹	–	–	–	–
G9C A12G G37C U47C G60A C71U	< 1e-05 s⁻¹	–	–	–	< 1e-05 s⁻¹
G32A A33U A39G C61G A64C C68A	< 1e-05 s⁻¹	–	–	–	< 1e-05 s⁻¹
C8A C50G A53U C67U	0.000239 ± 5.6e-05 s⁻¹	–	0.000168 ± 5.7e-05 s⁻¹	0.000626 ± 0.00028 s⁻¹	0.000304 ± 5e-05 s⁻¹
U47G C68U	4.04e-05 ± 8.8e-06 s⁻¹	–	0.000601 ± 0.00012 s⁻¹	0.0005 ± 0.00011 s⁻¹	0.0017 ± 0.00029 s⁻¹
C8A A33U C34A U56A	< 1e-05 s⁻¹	–	–	–	–
G7C G60U	< 1e-05 s⁻¹	< 1e-05 s⁻¹	–	< 1e-05 s⁻¹	< 1e-05 s⁻¹
G41C A53C C61A	< 1e-05 s⁻¹	–	–	–	< 1e-05 s⁻¹
A6C U31C G59U	< 1e-05 s⁻¹	–	–	–	–
G9C G44A	< 1e-05 s⁻¹	< 1e-05 s⁻¹	< 1e-05 s⁻¹	< 1e-05 s⁻¹	< 1e-05 s⁻¹
C11A G29U G59U	0.000103 ± 2.9e-05 s⁻¹	–	–	–	–
C8U A15G	< 1e-05 s⁻¹	< 1e-05 s⁻¹	< 1e-05 s⁻¹	–	< 1e-05 s⁻¹
G9A A53U	< 1e-05 s⁻¹	< 1e-05 s⁻¹	< 1e-05 s⁻¹	–	–
G7U G51C	< 1e-05 s⁻¹	–	< 1e-05 s⁻¹	< 1e-05 s⁻¹	–
C10U A14G U55C A64G G66U	< 1e-05 s⁻¹	–	–	–	–
C11G U31G	< 1e-05 s⁻¹	–	< 1e-05 s⁻¹	–	–

Variant	self-cleavage kobs at 40 uM GlcN6P (glucosamine-6-phosphate [1])	self-cleavage kobs at 160 uM GlcN6P (glucosamine-6-phosphate [2])	self-cleavage kobs at 640 uM GlcN6P (glucosamine-6-phosphate [3])	self-cleavage kobs at 2500 uM GlcN6P (glucosamine-6-phosphate [4])	self-cleavage kobs at 10000 uM GlcN6P (glucosamine-6-phosphate [5])
U54A C68G C70U	8.05e-05 ± 2.2e-05 s⁻¹	–	–	–	–
U56G G62A	< 1e-05 s⁻¹	–	–	< 1e-05 s⁻¹	< 1e-05 s⁻¹
A14U G35U G44C U57C	< 1e-05 s⁻¹	–	–	< 1e-05 s⁻¹	< 1e-05 s⁻¹
C11G G38A	< 1e-05 s⁻¹	–	< 1e-05 s⁻¹	< 1e-05 s⁻¹	–
G9A G13U A15G G37C A39C A53U C67G C68A	0.000469 ± 0.00015 s⁻¹	–	0.000121 ± 4.4e-05 s⁻¹	–	0.000282 ± 7.8e-05 s⁻¹
C10U A15C C34A A36G G43C U49C	< 1e-05 s⁻¹	< 1e-05 s⁻¹	–	< 1e-05 s⁻¹	< 1e-05 s⁻¹
G7U A12C	< 1e-05 s⁻¹	< 1e-05 s⁻¹	< 1e-05 s⁻¹	< 1e-05 s⁻¹	< 1e-05 s⁻¹
G38U G40C	< 1e-05 s⁻¹	–	< 1e-05 s⁻¹	< 1e-05 s⁻¹	< 1e-05 s⁻¹
U30G C61A	< 1e-05 s⁻¹	–	–	–	< 1e-05 s⁻¹
G35C A64G C67U	< 1e-05 s⁻¹	–	–	–	< 1e-05 s⁻¹
G13U A14C G35U G59C	< 1e-05 s⁻¹	–	–	–	–
C34A G60A C71A	< 1e-05 s⁻¹	–	–	–	< 1e-05 s⁻¹
A52C G60C	< 1e-05 s⁻¹	< 1e-05 s⁻¹	< 1e-05 s⁻¹	< 1e-05 s⁻¹	< 1e-05 s⁻¹
A42G U47G G63U	< 1e-05 s⁻¹	–	–	–	–
C10U G43C	< 1e-05 s⁻¹	< 1e-05 s⁻¹	< 1e-05 s⁻¹	< 1e-05 s⁻¹	< 1e-05 s⁻¹
G35C U46G C70G	< 1e-05 s⁻¹	–	< 1e-05 s⁻¹	< 1e-05 s⁻¹	< 1e-05 s⁻¹
G13A G51C	< 1e-05 s⁻¹	< 1e-05 s⁻¹	–	–	< 1e-05 s⁻¹
G7C C11U A42G A64U	< 1e-05 s⁻¹	–	–	–	< 1e-05 s⁻¹
G9A C11A G35C A42G	< 1e-05 s⁻¹	–	–	–	< 1e-05 s⁻¹
G13A G41C C61A	< 1e-05 s⁻¹	< 1e-05 s⁻¹	< 1e-05 s⁻¹	–	–
A14G U30G	0.001 ± 0.00014 s⁻¹	0.00212 ± 0.00046 s⁻¹	0.00706 ± 0.0011 s⁻¹	0.0179 ± 0.0054 s⁻¹	0.0807 ± 0.027 s⁻¹
G41U C50G	< 1e-05 s⁻¹	–	< 1e-05 s⁻¹	–	< 1e-05 s⁻¹

Variant	self-cleavage kobs at 40 uM GlcN6P (glucosamine-6-phosphate [1])	self-cleavage kobs at 160 uM GlcN6P (glucosamine-6-phosphate [2])	self-cleavage kobs at 640 uM GlcN6P (glucosamine-6-phosphate [3])	self-cleavage kobs at 2500 uM GlcN6P (glucosamine-6-phosphate [4])	self-cleavage kobs at 10000 uM GlcN6P (glucosamine-6-phosphate [5])
U30G A52C U65G C67G C70U	< 1e-05 s⁻¹	–	–	–	–
G32C A53U G59C C71U	< 1e-05 s⁻¹	–	< 1e-05 s⁻¹	–	< 1e-05 s⁻¹
A36G G44U	< 1e-05 s⁻¹	< 1e-05 s⁻¹	< 1e-05 s⁻¹	–	< 1e-05 s⁻¹
U55A C71G	8.5e-05 ± 2.2e-05 s⁻¹	0.000248 ± 9.2e-05 s⁻¹	0.00136 ± 0.00036 s⁻¹	0.000736 ± 0.00023 s⁻¹	0.00278 ± 0.0012 s⁻¹
C16U U31G C50G C70A	0.000109 ± 2.3e-05 s⁻¹	–	–	–	6.25e-05 ± 1.3e-05 s⁻¹
A12G G41C C61U	< 1e-05 s⁻¹	–	–	< 1e-05 s⁻¹	< 1e-05 s⁻¹
G41C G60C	< 1e-05 s⁻¹	< 1e-05 s⁻¹	< 1e-05 s⁻¹	< 1e-05 s⁻¹	< 1e-05 s⁻¹
G41C C58G	< 1e-05 s⁻¹	< 1e-05 s⁻¹	< 1e-05 s⁻¹	–	< 1e-05 s⁻¹
U54A U55G	0.00074 ± 7.7e-05 s⁻¹	0.00127 ± 0.00022 s⁻¹	0.00651 ± 0.0008 s⁻¹	0.0121 ± 0.0021 s⁻¹	0.0328 ± 0.011 s⁻¹
G35U G40C	< 1e-05 s⁻¹	< 1e-05 s⁻¹	< 1e-05 s⁻¹	< 1e-05 s⁻¹	< 1e-05 s⁻¹
G43U G60C	< 1e-05 s⁻¹	< 1e-05 s⁻¹	< 1e-05 s⁻¹	–	< 1e-05 s⁻¹
A42C U45A	< 1e-05 s⁻¹	–	< 1e-05 s⁻¹	< 1e-05 s⁻¹	–
G63U C67G	< 1e-05 s⁻¹	< 1e-05 s⁻¹	–	–	< 1e-05 s⁻¹
U31G G32U	5.84e-05 ± 1e-05 s⁻¹	–	0.000363 ± 7.2e-05 s⁻¹	0.000925 ± 0.00026 s⁻¹	0.00232 ± 0.00036 s⁻¹
U31A U45C A48U	< 1e-05 s⁻¹	–	< 1e-05 s⁻¹	–	–
G7U A52C C70U	< 1e-05 s⁻¹	–	< 1e-05 s⁻¹	< 1e-05 s⁻¹	< 1e-05 s⁻¹
G37U G41U U56A G62A G63U	< 1e-05 s⁻¹	–	–	–	–
C10U G21U G59C	< 1e-05 s⁻¹	–	< 1e-05 s⁻¹	< 1e-05 s⁻¹	–
C11U G37A G66U	< 1e-05 s⁻¹	–	–	–	–
U30A C34U	< 1e-05 s⁻¹	< 1e-05 s⁻¹	< 1e-05 s⁻¹	< 1e-05 s⁻¹	–
A6C A36U	< 1e-05 s⁻¹	–	–	< 1e-05 s⁻¹	< 1e-05 s⁻¹
A14G G37A A42U U69A	0.000165 ± 2.5e-05 s⁻¹	–	0.00196 ± 0.00035 s⁻¹	–	0.0157 ± 0.0032 s⁻¹

Variant	self-cleavage kobs at 40 uM GlcN6P (glucosamine-6-phosphate [1])	self-cleavage kobs at 160 uM GlcN6P (glucosamine-6-phosphate [2])	self-cleavage kobs at 640 uM GlcN6P (glucosamine-6-phosphate [3])	self-cleavage kobs at 2500 uM GlcN6P (glucosamine-6-phosphate [4])	self-cleavage kobs at 10000 uM GlcN6P (glucosamine-6-phosphate [5])
G9C G59U	< 1e-05 s⁻¹	< 1e-05 s⁻¹	< 1e-05 s⁻¹	< 1e-05 s⁻¹	–
G40C U54G U56G	4.04e-05 ± 1.9e-05 s⁻¹	–	–	0.000625 ± 0.00018 s⁻¹	0.000719 ± 0.00012 s⁻¹
C8G A12U A33U G60C	< 1e-05 s⁻¹	–	–	–	< 1e-05 s⁻¹
A39U C61A	< 1e-05 s⁻¹	< 1e-05 s⁻¹	< 1e-05 s⁻¹	< 1e-05 s⁻¹	< 1e-05 s⁻¹
G38A U49G A52U	< 1e-05 s⁻¹	–	–	–	–
C11A U31A A39G U55C G66U	< 1e-05 s⁻¹	< 1e-05 s⁻¹	–	–	< 1e-05 s⁻¹
U31A G62C C70G	< 1e-05 s⁻¹	–	–	–	–
C11U G51A	< 1e-05 s⁻¹	–	–	< 1e-05 s⁻¹	–
A6C A12U A42U	< 1e-05 s⁻¹	–	< 1e-05 s⁻¹	–	< 1e-05 s⁻¹
A36U G41A	< 1e-05 s⁻¹	< 1e-05 s⁻¹	< 1e-05 s⁻¹	< 1e-05 s⁻¹	< 1e-05 s⁻¹
C61U A64U	< 1e-05 s⁻¹	< 1e-05 s⁻¹	< 1e-05 s⁻¹	< 1e-05 s⁻¹	< 1e-05 s⁻¹
G63A U65G G66U	< 1e-05 s⁻¹	–	–	< 1e-05 s⁻¹	< 1e-05 s⁻¹
G9C U31G	< 1e-05 s⁻¹	< 1e-05 s⁻¹	< 1e-05 s⁻¹	< 1e-05 s⁻¹	–
U46G G60A	< 1e-05 s⁻¹	< 1e-05 s⁻¹	< 1e-05 s⁻¹	–	–
C10U C11G	< 1e-05 s⁻¹	–	< 1e-05 s⁻¹	< 1e-05 s⁻¹	< 1e-05 s⁻¹
U45C A64G	0.000103 ± 1.8e-05 s⁻¹	–	–	0.00182 ± 0.00053 s⁻¹	0.00342 ± 0.00055 s⁻¹
G38C U69C	< 1e-05 s⁻¹	< 1e-05 s⁻¹	–	–	< 1e-05 s⁻¹
A33G A36U	< 1e-05 s⁻¹	< 1e-05 s⁻¹	–	< 1e-05 s⁻¹	< 1e-05 s⁻¹
C11U A42C	< 1e-05 s⁻¹	< 1e-05 s⁻¹	< 1e-05 s⁻¹	< 1e-05 s⁻¹	< 1e-05 s⁻¹
G37U G66A	< 1e-05 s⁻¹	–	< 1e-05 s⁻¹	–	–
C16G G37A G40A A48G	< 1e-05 s⁻¹	–	–	–	< 1e-05 s⁻¹
A33C C67G	< 1e-05 s⁻¹	< 1e-05 s⁻¹	–	–	< 1e-05 s⁻¹
